Legend:
[1] = system: Saccharomyces cerevisiae; assay: IDE activity assay in yeast, serial dilution mating test; assay type: cell-based; conditions: MATa cells deficient for Axl1p and Ste23p, plasmid-encoded IDE
Method: (§1) Panel A depicts immunoblot of yeast-expressed IDE and IDE^K898A,K899A,S901A. Equivalent percentage amounts of total cellular extracts from yeast containing an empty expression vector or plasmids encoding IDE or the IDE^K898A,K899A,S901A mutant were analyzed by SDS-PAGE and immunoblotting using an IDE-specific antibody. […] An excess of MATa yeast were mixed with decreasing numbers of MATa cells deficient for Axl1p and Step 23p that were transformed with either an empty expression vector or a vector encoding IDE or IDE^K898A,K899A,S901A as indicated. Mating, which leads to colony growth, is dependent on production of mature a-factor pheromone by plasmid-encoded IDE. […] Concentrated samples of a-factor recovered from yeast bearing the indicated expression vector were spotted at the indicated dilutions on a lawn of RC757 MATa cells, which undergo growth arrest upon exposure to a-factor pheromone. […]
(§2) The assays take advantage of the ability of IDE, in lieu of the yeast M16 metallopeptidases Axl1p and Step 23p, to participate in the proteolytic maturation of yeast a-factor mating pheromone. […] Growth of diploid colonies, indicative of mating, was scored 3 days after incubation of plates at 30° C. […] Results of mating tests and halo assays were recorded by scanning plates with a Microtek flatbed scanner and importing digitized images into Photoshop and PowerPoint.

[2] = system: Abz-GGFLRKHGQ-EDDnp; assay: Enzyme activity assay, kinetics of IDE and ATP binding site mutants with fluorogenic substrate; assay type: biochemical; conditions: rat IDE, Abz-GGFLRKHGQ-EDDnp as substrate
Method: Reactions were conducted in 50 mM Tris-HCl, pH 7.4.
(§3) IDE activity was determined by measuring the increase in fluorescence that occurs when the enzyme cleaves the internally quenched fluorogenic substrate Abz-[…]-EDDnp (SEQ ID NO:3) at the R—K bond (Song et al., Journal of Biologial Chemistry 276, 1152-1155 (2001)). The reaction was followed on a SpectraMax Gemini XS fluorescence plate reader using an excitation and emission wavelengths of 318 nm and 419 nm, respectively. Initial velocities were determined using SoftMax Pro 4.0 and kinetic constants calculated using GraphPad Prism 4.0. ATPase activity was measured by following Pi release with acid-molybdate as described by Harder et al. (Harder et al., Biochemical Journal 298 (Pt 2), 395-401 (1994)).

[3] = system: Saccharomyces cerevisiae; assay: IDE activity assay in yeast, spot halo assay for a-factor production; assay type: cell-based; conditions: spot halo assay on RC757 lawn
Method: as §1, §2

[4] = ATPase activity, Pi release with acid-molybdate; assay type: biochemical; conditions: 1 mM ATP as substrate
Method: as §3

B1: IDE: Native rat insulin degrading enzyme (SEQ ID NO:1), expressed as hexahistidine fusion protein in Sf9 insect cells (protein, listed as Rattus norvegicus)
chain: MRNGLVWLLHPALPSTLHSILGARPPPVKRLCGFPKQIYSTMNNPAIQRIEDHIVKSPEDKREYRGLELANGIKVLLISDPTTDKSSAALDVHIGSLSDPPNIPGLSHFCEHMLFLGTKKYPKENEYSQFLSEHAGSSNAFTSGEHTNYYFDVSHEHLEGALDRFAQFFLCPLFDASCKDREVNAVDSEHEKNVMNDAWRLFQLEKATGNPKHPFSKFGTGNKYTLETRPNQEGIDVREELLKFHSTYYSSNLMAICVLGRESLDDLTNLVVKLFSEVENKNVPLPEFPEHPFQEEHLKQLYKIVPIKDIRNLYVTFPIPDLQQYYKSNPGHYLGHLIGHEGPGSLLSELKSKGWVNTLVGGQKEGARGFMFFIINVDLTEEGLLHVEDIILHMFQYIQKLRAEGPQEWVFQECKDLNAVAFRFKDKERPRGYTSKIAGKLHYYPLNGVLTAEYLLEEFRPDLIDMVLDKLRPENVRVAIVSKSFEGKTDRTEQWYGTQYKQEAIPEDVIQKWQNADLNGKFKLPTKNEFIPTNFEILALEKDATPYPALIKDTAMSKLWFKQDDKFFLPKACLNFEFFSPFAYVDPLHCNMAYLYLELLKDSLNEYAYAAELAGLSYDLQNTIYGMYLSVKGYNDKQPILLKKITEKMATFEIDKKRFEIIKEAYMRSLNNFRAEQPHQHAMYYLRLLMTEVAWTKDELKEALDDVTLPRLKAFIPQLLSRLHIEALLHGNITKQAALGVMQMVEDTLIEHAHTKPLLPSQLVRYREVQLPDRGWFVYQRRNEVHNNCGIEIYYQTDMQSTSENMFLELFCQIISEPCFNTLRTKEQLGYIVFSGPRRANGIQGLRFIIQSEKPPHYLESRVEAFLITMEKAIEDMTEEAFQKHIQALAIRRLDKPKKLSAECAKYWGEIISQQYNYDRDNIEVAYLKTLSKDDIIKFYKEMLAVDAPRRHKVSVHVLAREMDSCPVVGEFPSQNDINLSEAPPLPQPEVIHNMTEFKRGLPLFPLVKPHINFMAAKL
modifications: hexahistidine tag; wild-type Insulin Degrading Enzyme (IDE) from rat
[1]
  mating promoted in yeast: promoted mating to a greater extent
[2]
  Hill coefficient: 2.1 ± 0.3
  Km: 9.6 ± 0.7 mM
  kcat: 5.2 ± 0.2 min⁻¹
[2]; 50 mM Tris-HCl, pH 7.4
  Vmax: 47.2 ± 1.7 nmol/min/mg
[3]
  production of a-factor by yeast: greater production of a-factor
[4]
  IDE-dependent ATPase activity: less than 1 nmol/min/mg IDE

— patent publication US8632989B1, “Mutant insulin degrading enzyme and methods of use” (University of Kentucky Research Foundation, priority 2011, dated 2014)
